Test results: patent US20110275102

Key:
Crosstide GRPRTSSFAEG = target: T1, Crosstide GRPRTSSFAEG
T1 chain: GRPRTSSFAEG

[1] = target: GSK3-α partially purified from rabbit skeletal muscle
[2] = target: GSK3-β partially purified from rabbit skeletal muscle, A0A5F9
Sequence of GSK3-β partially purified from rabbit skeletal muscle, A0A5F9 (A0A5F9 entry or part of it): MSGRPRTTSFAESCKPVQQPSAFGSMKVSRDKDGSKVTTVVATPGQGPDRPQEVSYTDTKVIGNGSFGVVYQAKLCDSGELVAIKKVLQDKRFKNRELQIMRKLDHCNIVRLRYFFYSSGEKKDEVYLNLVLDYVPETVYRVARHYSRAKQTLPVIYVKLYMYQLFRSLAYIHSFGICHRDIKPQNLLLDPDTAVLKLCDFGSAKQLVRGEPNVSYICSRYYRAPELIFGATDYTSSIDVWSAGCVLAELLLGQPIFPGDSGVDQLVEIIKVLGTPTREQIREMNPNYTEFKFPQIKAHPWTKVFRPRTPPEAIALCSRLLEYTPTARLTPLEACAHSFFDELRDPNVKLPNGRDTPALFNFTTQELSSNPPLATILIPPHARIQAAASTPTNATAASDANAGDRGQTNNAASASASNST

B1: RAC-PK immunoprecipitated or chromatographed from insulin-stimulated L6 myotubes (protein)
chain: MNDVAIVKEGWLHKRGEYIKTWRPRYFLLKNDGTFIGYKERPQDVEQRESPLNNFSVAQCQLMKTERPRPNTFIIRCLQWTTVIERTFHVETPEEREEWTTAIQTVADGLKRQEEETMDFRSGSPSDNSGAEEMEVALAKPKHRVTMNEFEYLKLLGKGTFGKVILVKEKATGRYYAMKILKKEVIVAKDEVAHTLTENRVLQNSRHPFLTALKYSFQTHDRLCFVMEYANGGELFFHLSRERVFSEDRARFYGAEIVSALDYLHSEKNVVYRDLKLENLMLDKDGHIKITDFGLCKEGIKDGATMKTFCGTPEYLAPEVLEDNDYGRAVDWWGLGVVMYEMMCGRLPFYNQDHEKLFELILMEEIRFPRTLGPEAKSLLSGLLKKDPTQRLGGGSEDAKEIMQHRFFANIVWQDVYEKKLSPPFKPQVTSETDTRYFDEEFTAQMITITPPDQDDSMECVDSERRPHFPQFSYSASGTA
B1 was tested, and the “site of phosphorylation in Crosstide” value (Crosstide GRPRTSSFAEG) was “Akt/RAC phosphorylated the Ser in the Crosstide equivalent to Ser21 in GSK3-α and Ser9 in GSK3-β (data not shown)”, the “GSK3 activity after incubation with MgATP and RAC-PK” value [1] was “RAC-PK from insulin-stimulated L6 myotubes (but not from unstimulated or wortmannin-treated cells) inactivated GSK3-α and GSK3-β in vitro” and the “GSK3 activity after incubation with MgATP and RAC-PK” value [2] was “RAC-PK from insulin-stimulated L6 myotubes (but not from unstimulated or wortmannin-treated cells) inactivated GSK3-α and GSK3-β in vitro”. For the same protein, the “site of in vitro phosphorylation (tryptic peptide, solid-phase sequencing)” value [2] was “the third residue of these, corresponding to Ser9 (GSK3-β) or Ser21 (GSK3-α), was the site of phosphorylation in each phosphopeptide”.
